Assay results as given in PMC11574045, “A cofactor-induced repressive type of transcription factor condensation can be induced by synthetic peptides to suppress tumorigenesis” (The EMBO Journal, 2024).

Test system: HEK293FT cells transfected with TF library
Assay: Screening of TF condensates based on fluorescent puncta
Type: cell-based
Conditions: Figure 1B numerical data; TF library screen, one value per transcriptional factor
Outline: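 Each TF construct was introduced into HEK293FT cells using PEI at 4.8 μg/ml; glucose deprivation versus normal medium lasted 12 h. Automated confocal-style imaging of tagged TF staining, 50 fields per well, gave the puncta data.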

Molecule	Z score of condensed fraction
TRERF1 (protein, UniProt Q96PN7 1-1200, looked up) Transcriptional-regulating …: MGDQQLYKTNHVAHGSENLFYQQPPLGVHSGLNHNYGNAVTGGGMDAPQASPISPHFPQDTRDGLGLPVGSKNLGQMDTSRQGGWGSHAGPGNHVQLRGNLANSNMMWGAPAQAEPTDGYQYTYSQASEIRTQKLTSGVLHKLDSFTQVFANQNLRIQVNNMAQVLHTQSAVMDGAPDSALRQLLSQKPMEPPAPAIPSRYQQVPQQPHPGFTGGLSKPALQVGQHPTQGHLYYDYQQPLAQVPVQGGQPLQAPQMLSQHMQQMQQHQYYPPQQQQQAGQQRISMQEIQTQPQQIRPSQPQPPPQQQQPQQLQLQQRQGSMQIPQYYQPQPMMQHLQEQQQQQMHLQPPSYHRDPHQYTPEQAHTVQLIPLGSMSQYYYQEPQQPYSHPLYQQSHLSQHQQREDSQLKTYSSDRQAQAMLSSHGDLGPPDTGMGDPASSDLTRVSSTLPHRPLLSPSGIHLNNMGPQHQQLSPSAMWPQMHLPDGRAQPGSPESSGQPKGAFGEQFDAKNKLTCSICLKEFKNLPALNGHMRSHGGMRASPNLKQEEGEKVLPPQPQPPLPPPPPPPPPPQLPPEAESLTPMVMPVSVPVKLLPPKPSSQGFTNSTVAAPSARDKPASSMSDDEMPVLEIPRKHQPSVPKAEEPLKTVQEKKKFRHRPEPLFIPPPPSYNPNPAASYSGATLYQSQLRSPRVLGDHLLLDPTHELPPYTPPPMLSPVRQGSGLFSNVLISGHGPGAHPQLPLTPLTPTPRVLLCRSNSIDGSNVTVTPGPGEQTVDVEPRINIGLRFQAEIPELQDISALAQDTHKATLVWKPWPELENHDLQQRVENLLNLCCSSALPGGGTNSEFALHSLFEAKGDVMVALEMLLLRKPVRLKCHPLANYHYAGSDKWTSLERKLFNKALATYSKDFIFVQKMVKSKTVAQCVEYYYTWKKIMRLGRKHRTRLAEIIDDCVTSEEEEELEEEEEEDPEEDRKSTKEEESEVPKSPEPPPVPVLAPTEGPPLQALGQPSGSFICEMPNCGAVFSSRQALNGHARIHGGTNQVTKARGAIPSGKQKPGGTQSGYCSVKSSPSHSTTSGETDPTTIFPCKECGKVFFKIKSRNAHMKTHRQQEEQQRQKAQKAAFAAEMAATIERTTGPVGAPGLLPLDQLSLIKPIKDVDILDDDVVQQLGGVMEEAEVVDTDLLLDDQDSVLLQGDAEL	-0.901
TRIB3 (protein, UniProt Q96RU7 1-358, looked up) Tribbles homolog 3: MRATPLAAPAGSLSRKKRLELDDNLDTERPVQKRARSGPQPRLPPCLLPLSPPTAPDRATAVATASRLGPYVLLEPEEGGRAYQALHCPTGTEYTCKVYPVQEALAVLEPYARLPPHKHVARPTEVLAGTQLLYAFFTRTHGDMHSLVRSRHRIPEPEAAVLFRQMATALAHCHQHGLVLRDLKLCRFVFADRERKKLVLENLEDSCVLTGPDDSLWDKHACPAYVGPEILSSRASYSGKAADVWSLGVALFTMLAGHYPFQDSEPVLLFGKIRRGAYALPAGLSAPARCLVRCLLRREPAERLTATGILLHPWLRQDPMPLAPTRSHLWEAAQVVPDGLGLDEAREEEGDREVVLYG	-0.9785
TRIM32 (protein, UniProt Q8CH72 1-655, looked up) E3 ubiquitin-protein ligase …: MAAAAAASHLNLDALREVLECPICMESFTEEQLRPKLLHCGHTICRQCLEKLLASSINGVRCPFCSKITRITSLTQLTDNLTVLKIIDTAGLSEAVGLLMCRGCGRRLPRQFCRSCGVVLCEPCREADHQPPGHCTLPVKEAAEERRRDFGEKLTRLRELTGELQRRKAALEGVSRDLQARYKAVLQEYGHEERRIQEELARSRKFFTGSLAEVEKSNSQVVEEQSYLLNIAEVQAVSRCDYFLAKIKQADVALLEETADEEEPELTASLPRELTLQDVELLKVGHVGPLQIGQAVKKPRTVNMEDSWAGEEGAASSASASVTFREMDMSPEEVAPSPRASPAKQRSSEAASGIQQCLFLKKMGAKGSTPGMFNLPVSLYVTSQSEVLVADRGNYRIQVFNRKGFLKEIRRSPSGIDSFVLSFLGADLPNLTPLSVAMNCHGLIGVTDSYDNSLKVYTMDGHCVACHRSQLSKPWGITALPSGQFVVTDVEGGKLWCFTVDRGAGVVKYSCLCSAVRPKFVTCDAEGTVYFTQGLGLNVENRQNEHHLEGGFSIGSVGPDGQLGRQISHFFSENEDFRCIAGMCVDARGDLIVADSSRKEILHFPKGGGYSVLIREGLTCPVGIALTPKGQLLVLDCWDHCVKIYSYHLRRYSTP	-0.9694
TRIP4 (protein, UniProt Q15650 2-581, looked up) Activating signal …: AVAGAVSGEPLVHWCTQQLRKTFGLDVSEEIIQYVLSIESAEEIREYVTDLLQGNEGKKGQFIEELITKWQKNDQELISDPLQQCFKKDEILDGQKSGDHLKRGRKKGRNRQEVPAFTEPDTTAEVKTPFDLAKAQENSNSVKKKTKFVNLYTREGQDRLAVLLPGRHPCDCLGQKHKLINNCLICGRIVCEQEGSGPCLFCGTLVCTHEEQDILQRDSNKSQKLLKKLMSGVENSGKVDISTKDLLPHQELRIKSGLEKAIKHKDKLLEFDRTSIRRTQVIDDESDYFASDSNQWLSKLERETLQKREEELRELRHASRLSKKVTIDFAGRKILEEENSLAEYHSRLDETIQAIANGTLNQPLTKLDRSSEEPLGVLVNPNMYQSPPQWVDHTGAASQKKAFRSSGFGLEFNSFQHQLRIQDQEFQEGFDGGWCLSVHQPWASLLVRGIKRVEGRSWYTPHRGRLWIAATAKKPSPQEVSELQATYRLLRGKDVEFPNDYPSGCLLGCVDLIDCLSQKQFKEQFPDISQESDSPFVFICKNPQEMVVKFPIKGNPKIWKLDSKIHQGAKKGLMKQNKAV	0.1966
BNC2 (protein, UniProt Q6ZN30 1-1099, looked up) Zinc finger protein …: MAHLGPTPPPHSLNYKSEDRLSEQDWPAYFKVPCCGVDTSQIESEEAEVDVRERETQRDREPKRARDLTLRDSCTDNSMQFGTRTTTAEPGFMGTWQNADTNLLFRMSQQAIRCTLVNCTCECFQPGKINLRTCDQCKHGWVAHALDKLSTQHLYHPTQVEIVQSNVVFDISSLMLYGTQAVPVRLKILLDRLFSVLKQEEVLHILHGLGWTLRDYVRGYILQDAAGKVLDRWAIMSREEEIITLQQFLRFGETKSIVELMAIQEKEGQAVAVPSSKTDSDIRTFIESNNRTRSPSLLAHLENSNPSSIHHFENIPNSLAFLLPFQYINPVSAPLLGLPPNGLLLEQPGLRLREPSLSTQNEYNESSESEVSPTPYKNDQTPNRNALTSITNVEPKTEPACVSPIQNSAPVSDLTKTEHPKSSFRIHRMRRMGSASRKGRVFCNACGKTFYDKGTLKIHYNAVHLKIKHRCTIEGCNMVFSSLRSRNRHSANPNPRLHMPMLRNNRDKDLIRATSGAATPVIASTKSNLALTSPGRPPMGFTTPPLDPVLQNPLPSQLVFSGLKTVQPVPPFYRSLLTPGEMVSPPTSLPTSPIIPTSGTIEQHPPPPSEPVVPAVMMATHEPSADLAPKKKPRKSSMPVKIEKEIIDTADEFDDEDDDPNDGGAVVNDMSHDNHCHSQEEMSPGMSVKDFSKHNRTRCISRTEIRRADSMTSEDQEPERDYENESESSEPKLGEESMEGDEHIHSEVSEKVLMNSERPDENHSEPSHQDVIKVKEEFTDPTYDMFYMSQYGLYNGGGASMAALHESFTSSLNYGSPQKFSPEGDLCSSPDPKICYVCKKSFKSSYSVKLHYRNVHLKEMHVCTVAGCNAAFPSRRSRDRHSANINLHRKLLTKELDDMGLDSSQPSLSKDLRDEFLVKIYGAQHPMGLDVREDASSPAGTEDSHLNGYGRGMAEDYMVLDLSTTSSLQSSSSIHSSRESDAGSDEGILLDDIDGASDSGESAHKAEAPALPGSLGAEVSGSLMFSSLSGSNGGIMCNICHKMYSNKGTLRVHYKTVHLREMHKCKVPGCNMMFSSVRSRNRHSQNPNLHKNIPFTSVD	-0.9038
